Assay results taken from the DeepSol protein solubility set.

test: soluble on expression in E. coli; label from the status in PepcDB or PDB records

| Sequence | soluble on expression in E. coli |
| --- | --- |
| MSLGCDSILSIDIGTTRIKAGLVDCNTLEITGRGSVSTPVSYPRKGWSEQDPEELWQAIVRASSAALEGFEASRVSGVIFSTYLAGVVLLDRDNYELTPIITWLDERAHGLPRELFSGVLKVSGYNLLHLVDLLRLTGGAPSKTGKDPLSKMVWLRENKPDLFTKAHTIGTLKTWVLAKTAEARLVSPDDAHLTWLADTRGGRAVWSPRLARRYGIPLEKLPGIAGPTDVAGGLVSSAARDLGLPQGIPVIVGAGDIASSAVGSGALAAGEYHIYVGTSSWIGVHSTRRLLDVRHYIGSLLSAKPGEYLVIGEQEIAGGMIDWILDVTGMDYRAVEDIHSIPPGSEGLIATPWLYGERTPIDDPHAKGVLVGLTLRHTKKHLVRAAVEGVALNIAWAMEHMTRLAGKPKLVRGVGGGFRLRTLAKVIASALNATIETVSQPEMAGVRGAGALAAAALKGSSIESEAGKIPVSWRAEADSNASKAYKDLLQIYQEIYSRLKSVFRRLSEGHHHHHH | not soluble |
| MNHKVHHHHHHIDGRHHHHHHHIDGRHMQVSVETTQGLGRRVTITIAADSIETAVKSELVNVAKKVRIDGFRKGKVPMNIVAQRYGASVRQDVLGDLMSRNFIDAIIKEKINPAGAPTYVPGEYKLGEDFTYSVEFEVYPEVELQGLEAIEVEKPIVEVTDADVDGMLDTLRKQQATWKEKDGAVEAEDRVTIDFTGSVDGEEFEGGKASDFVLAMGQGRMIPGFEDGIKGHKAGEEFTIDVTFPEEYHAENLKGKAAKFAINLKKVEERELPELTAEFIKRFGVEDGSVEGLRAEVRKNMERELKSAIRNRVKSQAIEGLVKANDIDVPAALIDSEIDVLRRQAAQRFGGNEKQALELPRELFEEQAKRRVVVGLLLGEVIRTNELKADEERVKGLIEEMASAYEDPKEVIEFYSKNKELMDNMRNVALEEQAVEAVLAKAKVTEKETTFNELMNQQA | soluble |
| SRQHTSISDYDVMILDLTDVPMLDVTVGLALENAIKDALDARCEVYLLCPNQRTREQLEKFHVIDLVPDNNMYQFRYEALNAAVAHVESDQYQRMTA | not soluble |
| MKSVKNSWNSSIKDGEYQRKESQFRNWITTDGSAGITGRGGFQAEAGRYHLYVSLACPWAHRTLIFRQLKGLEDLITVSVVHPDMHENGWSFKHDEESAKLYGTTGDNLYDGKFISEKYLAQDPDYSGVNSVPVLWDKKDKVIVNNESSEIIRMFNSAFNDITGNTLDFYPEHLREKIDHENELVYHKINNGVYKTGFATTQEAYDKNVNELFAALEQIDEKLSKQRYLTGDEITEADWRLWATLVRFDSVYHTHFKCNLKLIKEFSNIYNYMLELFQVPNVAKTVNEAHIKRHYYASHVAINPYGIVPIAHQQDWTAQHNRDKQFS | not soluble |
| MGSDKIHHHHHHMLKRKIETFLAKWKKSEDRKPLVIKGIRQCGKTYIVQKFAKENYESVVYMNFILEPDKKSAFTGNIDVDTIILNLSALIQGSRFINGKTCIILDEIQECKEARTALKSFHIDGRFDVIATGSLLGVKGYDKSKKKKEEEEGQDSVPVGYETVIDMYPLDFEEFLWANGISDMVIDSVKSCFENESTVPDGIHKAMMELLYRYVIVGGLPEVVNCFLETKNIELIYKVQRNLIAEYEEDMVKYADDPDKPRIRECFESIPKQLAKENKKFQYSVVKKGGRASQYIGSIQWLEDAGIVRRCYNTQITELPLEGNSIKGSFKVYTTDIGILMAMLDYGTQADILKGNLLGYKGAIFENLMADFLCKSGQKLYYFHKDSGLELDFLVRFKGECVILEVKAKTGKAKSMTTVLKNKDVYYVNNAIKLGQYNVGCEGDILTIPLYMGFLVEDKLADVIIPDVDVSLLTTI | not soluble |
| MSLIKLRPHHIMCFQGYEGKGYSQDFIDNMDNIYRDLKEKDNLKIKIVFSTDDVCGSCPNKISDNNCGCNEKVMAIDNKVIRVLKLKQKIYTYNELVNKLRLNINEGVMKDICGQCVWYENSKCKTSILSLEGHHHHHH | soluble |
| MSLKWNRPAGSLSATLILAHGAGAPMDSPFMERIAELLAAQGIAVARFEFPYMAQRREDGRKRPPNPQAQLLDCWRRVHAQVRETLDGPLALGGKSMGGRMASLLADELGADALVCLGYPFYAAGKPEKPRVAHLAGLRTPTLIVQGERDALGNREAVAGYALAPTIRLHWLAAADHDLKPLKASGLTHEQHLAATAREVAGFLRGLQGH | not soluble |
| MAVRIRLAKFGRKHHPIYRIVVMDAKSPREGKYIDILGTYDPKRKVLINVYPEKVKEWVLKGVELSHRAKAILWNHGILKEVVPEGYEMKRVGDYYVFEKRESKKSKGGEAA | soluble |
| MPSPMSTLTTYSEPRGSTTYTLPAMEPSVSRLDTDMNSGLMPRYIFLTPLDSITLLASSGTLLEKPGQDIQRSSPTDSTSHSTRFIGGAPMKVATNVCFGLM | not soluble |
| MKTAYIAKQRQISFVKSHFSRQLEERLGLIEVQAPILSRVGDGTQDNLSGAEKAVQVKVKALPDAQFEVVHSLAKWKRQTLGQHDFSAGEGLYTHMKALRPDEDRLSPLHSVYVDQWDWERVMGDGERQFSTLKSTVEAIWAGIKATEAAVSEEFGLAPFLPDQIHFVHSQELLSRYPDLDAKGRERAIAKDLGAVFLVGIGGKLSDGHRHDVRAPDYDDWSTPSELGHAGLNGDILVWNPVLEDAFELSSMGIRVDADTLKHQLALTGDEDRLELEWHQALLRGEMPQTIGGGIGQSRLTMLLLQLPHIGQVQAGVWPAAVRESVPSLL | soluble |
| MAHHHHHHMHAEAAAEAAMPVIATLSSRVVRIMGLNPGYMTLQGSNTYLVGTGQERLLIDSGEGVEGYGHLLQKAVAEESTRLGGPVHISKLLLTHWHGDHIGGVETVRRLFPQVQLLKQPSQYAHTEVDALCQVPPEVVKVEGATLQLVHTPGHTDDHLCAFLQEERALFTSDTVLGTGTSVFSSFRDYMASLHVLERMKPERLYPAHGPVVEDGTARIEEIIRHRHTREKQILQVLCERTHGVSALDSEKGLTVRELVDTIYTTIPAALKTAAGTNVFHHVKKLLNEGRVVVRYAPADLVHFLKDATDYTVFGEGADADVKVIERILTEFRVAAAGVSSGAP | soluble |
| MMDLELPPPGLPSQQDMDLIDILWRQDIDLGVSREVFDFSQRRKEYELEKQKKLEKERQEQLQKEQEKAFFAQLQLDEETGEFLPIQPAQHIQSETSGSANYSQVAHIPKSDALYFDDCMQLLAQTFPFVDDNEVSSATFQSLVPDIPGHIESPVFIATNQAQSPETSVAQVAPVDLDGMQQDIEQVWEELLSIPELQCLNIENDKLVETTMVPSPEAKLTEVDNYHFYSSIPSMEKEVGNCSPHFLNAFEDSFSSILSTEDPNQLTVNSLNSDATVNTDFGDEFYSAFIAEPSISNSMPSPATLSHSLSELLNGPIDVSDLSLCKAFNQNHPESTAEFNDSDSGISLNTSPSVASPEHSVESSSYGDTLLGLSDSEVEELDSAPGSVKQNGPKTPVHSSGDMVQPLSPSQGQSTHVHDAQCENTPEKELPVSPGHRKTPFTKDKHSSRLEAHLTRDELRAKALHIPFPVEKIINLPVVDFNEMMSKEQFNEAQLALIRDIRRRGKNKVAAQNCRKRKLENIVELEQDLDHLKDEKEKLLKEKGENDKSLHLLKKQLSTLYLEVFSMLRDEDGKPYSPSEYSLQQTRDGNVFLVPKSKKPDVKKN | not soluble |
| MSYQFTELKEELIIKKIVSLHYFEYMSDFTFPGESHNFWEFLYVDKGELQVTADREKFILRQGQIIFHRPNEFHALAANNVIAPNLVVISFEAGEPCMAFFEHKILTVGESERNLLSQIIAEARETFDGPMDDPYMEVLSRRESIPFGAEQMIKIHLEQFLIQLFRNFSGTLAFGENHKLNGAHAPGKSPALADGNELFSDILDYLDRNIGKSLTVEKICRDNLIGVSQLKKLFRTYQGSGVMECFNQMKINAAKQMIRNQQMNFTQIADALGYTSVHYFSRQFKKLTDMTPTEYRASIMLRAKRPQRKHL | not soluble |
| SLGMIKNSLFGSVETWPWQVLSKGDKEEVAYEERACEGGKFATVEVTDKPVDEALREAMPKVAKYAGGTNDKGIGMGMTVPISFAVFPNEDGSLQKKLKVWFRIPNQFQSDPPAPSDKSVKIEEREGITVYSMQFGGYAKEADYVAQATRLRAALEGTATYRGDIYFCTGYDPPMKPYGRRNEIWLLKT | soluble |
| MSRTEGSHEAEQDLTMIVGTYTSGDSKGLYSFRFNEENGTATALSEAEVENPSYLVPSADGKFIYAVSEFSNEQAAANAFAFNKEEGTFRLLNTQKTGGEDPCYIITNGSNVVTANYSGGSISVFPIDKDGSLLPASEVVKFKGSGADKERQEKPHLHCVRITPDGKYLFADDLGTDQIHKFIVNPNAKADNEDVFLKEGSPASYKVEAGSGPRHLTFAPNGSYAYLINELSGTVIAFEYNDGELKEIQTIAADTVGAKGSGDIHISPDGKFLYASNRLKADGLAIFSIHPENGMLTKVGYQLTGIHPRNFIITPNGKYLLVACRDSNVIQVYERDTDTGLLTDIRKDIKVDKPVCIKFVPLEHHHHHH | soluble |
| MARASSTKARKQRHDPLLKDLDAAQGTLKKINKKKLAQNDAANHDAANEEDGYIDSKASRKILQLAKEQQDEIEGEELAESERNKQFEARFTTMSYDDEDEDEDEDEEAFGEDISDFEPEGDYKEEEEIVEIDEEDAAMFEQYFKKSDDFNSLSGSYNLADKIMASIREKESQVEDMQDDEPLANEQNTSRGNISSGLKSGEGVALPEKVIKAYTTVGSILKTWTHGKLPKLFKVIPSLRNWQDVIYVTNPEEWSPHVVYEATKLFVSNLTAKESQKFINLILLERFRDNIETSEDHSLNYHIYRAVKKSLYKPSAFFKGFLFPLVETGCNVREATIAGSVLAKVSVPALHSSAALSYLLRLPFSPPTTVFIKILLDKKYALPYQTVDDCVYYFMRFRILDDGSNGEDATRVLPVIWHKAFLTFAQRYKNDITQDQRDFLLETVRQRGHKDIGPEIRRELLAGASREFVDPQEANDDLMIDVN | soluble |
| MDTVNDSFSPGSSRPSPATLSREDCWSEEATFTLIQAWGNRYVDLSRGNLRQKHWQEVANAVNDRHYNTGRNVSAAKSQPYRTDVQCKNRIDTLKKKYKVEKARVSESNPGAYISPWPFFSALDDLLRESFPTSSNPDSTDNIPHQRLSLPMSINPVPVAPRSAIPRRPATSPAIIPHAGDDLLGFRGNLNAFAAAAAAAACPASEDDSEGSRSRSSGRSGSNKKRERKIEKKQGYKEVADAIERLGQIYERVEEKKRKEMVELEKQRMRFAKELECHRMQLFTEMQVRLHKLRRTSGSKGPTSSASAGET | soluble |
| MNTINRNYYPVSGIPAQDAPAQTDQLPPQGQGIKPGHNSNLIDFGLTQQANGPHSSLNTLGSRVQPTDTNTSSNMPGGNGEQVLNKLVQAIRNILNNLLSLLEGNLHNGSGPAQPQRDQTPTLAQSPSSASPSSSPPSTPQGNAEKPFVVQNDHPSEKPVSLQKNTEPTSAAPSQTAPRTTERSSATPDKTPARPDAVNPAVVHDLALPKTSTDTTAKPDNTVNAAKTATPAAHGQGADMSGIMGFAKEANTTGGNGGEVVTVNTVADLKKYMEDDKARTVKLGANLSADSKVTINFGANKTLLGTDKGNSLHNIYLASGKTASNDIFQNLNFDHDSRYRENGDMQMFISSGQKYWIDHNTYSGTKDQNAKGLDKLLYVGGTADNVSLTNSKFQNNEYGVILGQPDDSAQAKAEYKGYPRMTIANNVFSNLDVRAPGLMRHGQFDVLNNSIDNFHLGFTATGDATILSQANYFAKGVDVSDKASNSGVLDDYGDAHFKDIGSNVSFTQKSAVTAWTPSYQRDIKTAEAARAYDQANAGAKTVS | not soluble |
| MSLSRILFLTDLHWDHDYLEGTDPDCADPLCCRRGSGLPPASRPGAGYWGEYSKCDLPLRTLESLLSGLGPAGPFDMVYWTGDIPAHDVWHQTRQDQLRALTTVTALVRKFLGPVPVYPAVGNHESTPVNSFPPPFIEGNHSSRWLYEAMAKAWEPWLPAEALRTLRIGGFYALSPYPGLRLISLNMNFCSRENFWLLINSTDPAGQLQWLVGELQAAEDRGDKVHIIGHIPPGHCLKSWSWNYYRIVARYENTLAAQFFGHTHVDEFEVFYDEETLSRPLAVAFLAPSATTYIGLNPGYRVYQIDGNYSGSSHVVLDHETYILNLTQANIPGEGHHHHHH | soluble |
